Experiments:
[1] = molecular target: T1, 인간 DLL4 단백질 세포외 도메인 (R&D Systems Cat: 1506-D4/CF) (human, UniProt Q9NR61 27-529); assay: SPR (BIACORE T200), DLL4 coated on the chip, antibody injected
T1 construct: extracellular domain; Bought protein; also called hDLL4-His; human DLL4; not shown: His tag (hDLL4-His)

[2] = molecular target: T1, 인간 DLL4 단백질 세포외 도메인 (R&D Systems Cat: …); assay: competition ELISA: antibody (2 pM-35 nM) premixed with DLL4 antigen (800 ng/ml), added to coated hNotch-1-hFc; bound DLL4 detected with an HRP anti-His reagent

T1 sequence (Q9NR61 27-529): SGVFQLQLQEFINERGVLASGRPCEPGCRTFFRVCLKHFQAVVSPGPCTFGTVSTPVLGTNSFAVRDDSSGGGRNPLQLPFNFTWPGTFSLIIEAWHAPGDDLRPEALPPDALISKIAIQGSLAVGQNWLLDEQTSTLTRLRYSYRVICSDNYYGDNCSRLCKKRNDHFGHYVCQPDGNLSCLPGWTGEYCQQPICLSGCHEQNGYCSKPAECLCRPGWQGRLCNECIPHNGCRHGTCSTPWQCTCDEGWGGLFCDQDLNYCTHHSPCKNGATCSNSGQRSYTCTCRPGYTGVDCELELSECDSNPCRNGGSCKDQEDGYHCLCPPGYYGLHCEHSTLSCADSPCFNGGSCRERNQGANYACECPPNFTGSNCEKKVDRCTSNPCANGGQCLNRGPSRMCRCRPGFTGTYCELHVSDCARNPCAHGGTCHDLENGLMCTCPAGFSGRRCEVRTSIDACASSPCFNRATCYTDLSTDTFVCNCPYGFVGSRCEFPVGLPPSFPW

B1: 인간 단일클론항체 mh2F (항 DLL4 항체) (antibody, V domains shown)
VH: QVQLVQSGAEVKKPGASVKVSCKASGYTFTSYYLHWVRQAPGQGLEWMGIINPSGGSTSFAQKFQGRVTMTRDTSTSTVYMELSSLRSEDTAVYYCARDSAGGTLDVWGQGTMITVSS
VL: SYELTQPPSVSVAPGKTARITCGGNKIGNKGVHWYQQKPGQAPVLVIYYDKDRPSGIPERFSGSNSGNTATLTISRVEAGDEADYYCQVWDRSTVIFGGGTKLTVLG
notes: Isolated from a human scFv phage library; In ELISA it was detected with an HRP-conjugated anti-Fab reagent; also called anti-DLL4 antibody
Q: With B1 as the binder, how does the Kd [1] read?
A: 5.27 nM

Q: And the IC50 [2]?
A: 1.03 nM

— patent publication KR20140085790A (dated 2014)
